We go through four proteins from patent US7074595B2, “General means of labeling protein by using wheat embryo cell-free protein synthesis system” (CellFree Sciences Co., Ltd., priority 2000, dated 2006).

Holding throughout (format): biochemical
Substrate in series [1]: NC(=O)C1=CN([C@@H]2O[C@H](COP(=O)(O)OP(=O)(O)OC[C@H]3O[C@@H](n4cnc5c(N)ncnc54)[C@H](OP(=O)(O)O)[C@@H]3O)[C@@H](O)[C@H]2O)C=CC1
Briefly: enzymatic properties of DHFR (Table 1): Michaelis constant and maximum velocity, Met-DHFR. The following applies: other: Met-DHFR. The protocol:
(§1) Purification of GFP and measurement of its activity by analysis of fluorescence spectrum using a fluorospectrophotometer were carried out in accordance with a method by Deschamps, et al. [Deschamps, J. R. et al., (1995) Protein Expression and Purification, 6, 555–558]. In the measurement of fluorescence spectrum, a fluorophotometer of type RF-5000 by Shimadzu was used. DHFR activity was measured by a method of Stanley, et al. [Methods. Enzymol. 18, 195–199 (1971)].
(§2) Then enzymatic properties of the selenomethionine-containing proteins purified as such were investigated biochemically. Fluorescence emission spectrum of a certain concentration of the purified GFP preparation shown in FIG. 2 excited at the wavelength of 395 nm was measured within a range of 410 nm to 600 nm and the result is shown in FIG. 3. As will be apparent from FIG. 3, there is no difference between the fluorescence emission spectra of GFP [(A) in FIG. 3] and selenomethionine GFP [(B) in FIG. 3]. Thus, the conclusion is that the change in GFP activity by substituting methionine residue with selenomethionine is not higher than the usual measurement sensitivity. […]

Substrate in series [2]: NC(=O)C1=CN([C@@H]2O[C@H](COP(=O)(O)OP(=O)(O)OC[C@H]3O[C@@H](n4cnc5c(N)ncnc54)[C@H](OP(=O)(O)O)[C@@H]3O)[C@@H](O)[C@H]2O)C=CC1
Description: enzymatic properties of DHFR (Table 2): Michaelis constant and maximum velocity, Heavy Hydrogen-Labeled DHFR. The following applies: other: Heavy Hydrogen-Labeled DHFR. How it is done: as §1
With regard to the wheat embryo, that being contaminated with substantially no endosperm component prepared by the method mentioned in Example 1 was used. Preparation of an extract from wheat embryo was carried out by the exactly same method as Example 1 except that the solution for extraction and the solution used for gel filtration contained 20 kinds of heavy hydrogen-labeled L-amino acids instead of 20 kinds of selenomethionine-containing L-amino acids. Concentration of the prepared extract was adjusted to 170˜250 A260 nm (A260/A280=1.5).
Although the composition of the protein synthesis reaction solution is as same as that described in Example 1, it contains 20 kinds of heavy hydrogen-labeled L-amino acids instead of 20 kinds of selenomethionine-containing L-amino acids.
Then enzymatic properties of the purified heavy hydrogen-labeled DHFR were biochemically investigated by the same manner as in Example 1. […]

Substrate in series [3]: NC(=O)C1=CN([C@@H]2O[C@H](COP(=O)(O)OP(=O)(O)OC[C@H]3O[C@@H](n4cnc5c(N)ncnc54)[C@H](OP(=O)(O)O)[C@@H]3O)[C@@H](O)[C@H]2O)C=CC1
Briefly: enzymatic properties of DHFR (Table 2): Michaelis constant and maximum velocity, Natural-Type DHFR. Conditions: other: Natural-Type DHFR. How it is done: as §1
Then enzymatic properties of the purified heavy hydrogen-labeled DHFR were biochemically investigated by the same manner as in Example 1. As will be apparent from Table 2, both Vmax and Michaelis constant (Km) to NADPH which are parameters for enzymatic chemical property of natural-type DHFR and heavy hydrogen-labeled DHFR show no difference between both enzymes. Thus, it became clear that DHFR comprising heavy hydrogen-labeled amino acids maintained nearly the same enzymatic activity as the natural-type DHFR.

Substrate in series [4]: NC(=O)C1=CN([C@@H]2O[C@H](COP(=O)(O)OP(=O)(O)OC[C@H]3O[C@@H](n4cnc5c(N)ncnc54)[C@H](OP(=O)(O)O)[C@@H]3O)[C@@H](O)[C@H]2O)C=CC1
Description: enzymatic properties of DHFR (Table 1): Michaelis constant and maximum velocity, SeMet-DHFR. Conditions: other: SeMet-DHFR. How it is done:
as §1, §2

B1: dihydrofolate reductase (DHFR), natural-type methionine-containing (Met-DHFR) (Escherichia coli K-12) (protein)
chain: MISLIAALAVDRVIGMENAMPWNLPADLAWFKRNTLNKPVIMGRHTWESIGRPLPGRKNIILSSQPGTDDRVTWVKSVDEAIAACGDVPEIMVIGGGRVYEQFLPKAQKLYLTHIDAEVEGDTHFPDYEPDDWESVFSEFHDADAQNSHSYCFEILERR
notes: made in house; host or cells: wheat embryo extract cell-free protein synthesis (dialysis type)
For the protein B1, in series [1], the Km turned out to be 11.2 µM.

B2: dihydrofolate reductase (DHFR), Heavy Hydrogen-Labeled DHFR (20 kinds of heavy hydrogen-labeled L-amino acids) (Escherichia coli K-12) (protein)
chain: MISLIAALAVDRVIGMENAMPWNLPADLAWFKRNTLNKPVIMGRHTWESIGRPLPGRKNIILSSQPGTDDRVTWVKSVDEAIAACGDVPEIMVIGGGRVYEQFLPKAQKLYLTHIDAEVEGDTHFPDYEPDDWESVFSEFHDADAQNSHSYCFEILERR
notes: as for B1
In the case of B2, in series [2], the Km was 14.7 µM.

B3: dihydrofolate reductase (DHFR), Natural-Type DHFR (Escherichia coli K-12) (protein)
chain: MISLIAALAVDRVIGMENAMPWNLPADLAWFKRNTLNKPVIMGRHTWESIGRPLPGRKNIILSSQPGTDDRVTWVKSVDEAIAACGDVPEIMVIGGGRVYEQFLPKAQKLYLTHIDAEVEGDTHFPDYEPDDWESVFSEFHDADAQNSHSYCFEILERR
notes: as for B1
For the protein B3, the Km in series [3] was determined as 13.2 µM.

B4: dihydrofolate reductase (DHFR), selenomethionine-containing (SeMet-DHFR) (Escherichia coli K-12) (protein)
chain: MISLIAALAVDRVIGMENAMPWNLPADLAWFKRNTLNKPVIMGRHTWESIGRPLPGRKNIILSSQPGTDDRVTWVKSVDEAIAACGDVPEIMVIGGGRVYEQFLPKAQKLYLTHIDAEVEGDTHFPDYEPDDWESVFSEFHDADAQNSHSYCFEILERR
notes: as for B1
B4: the Km in series [4] was determined as 10.2 µM.

The Km is the concentration of substrate that gives half-maximal velocity.
